Assay results published in the MegaScale stability set (Tsuboyama et al. 2023).

B1: 5KPH (parent)
chain: EEKRQVKQVAKEKLLEQSPNSKVQVRRVQKQGNTIRVELELRTNGKKENYTVEVERQGNTWTVKRITRT

Variants of: B1
Assay: folding stability dG (cDNA display proteolysis); higher = more stable
Settings: PBS, room temperature

| Variant | folding stability dG |
| --- | --- |
| EEKRQVKQVAKEKLLEQSPNSKVQVRRVQKQGNTIRVELELRTYGKKENYTVEVERQGNTWTVKRITRT [N44Y] | 3.78 kcal/mol |
| EEKRQVKQVAKMKLLEQSPNSKVQVRRVQKQGNTIRVELELRTNGKKENYTVEVERQGNTWTVKRITRT [E12M] | 3.67 kcal/mol |
| WEKRQVKQVAKEKLLEQSPNSKVQVRRVQKQGNTIRVELELRTNGKKENYTVEVERQGNTWTVKRITRT [E1W] | 2.91 kcal/mol |
| KEKRQVKQVAKEKLLEQSPNSKVQVRRVQKQGNTIRVELELRTNGKKENYTVEVERQGNTWTVKRITRT [E1K] | 3.85 kcal/mol |
| CEKRQVKQVAKEKLLEQSPNSKVQVRRVQKQGNTIRVELELRTNGKKENYTVEVERQGNTWTVKRITRT [E1C] | 3.69 kcal/mol |
| EEKRQVKQVAKEKLLEQSPNSKVQVRRVQKQGNTIRVELELRNNGKKENYTVEVERQGNTWTVKRITRT [T43N] | 3.87 kcal/mol |
| EEKRQVKQVAHEKLLEQSPNSKVQVRRVQKQGNTIRVELELRTNGKKENYTVEVERQGNTWTVKRITRT [K11H] | 2.85 kcal/mol |
| EEKRQVKQVAEEKLLEQSPNSKVQVRRVQKQGNTIRVELELRTNGKKENYTVEVERQGNTWTVKRITRT [K11E] | 3.44 kcal/mol |
| EEKRQVKQVAKEKLLEQSPNSKVQVRRVQKQGNTIRVELELRTNGKKENYMVEVERQGNTWTVKRITRT [T51M] | 3.95 kcal/mol |
| EEKRQVKQVAKEKLLEQWPNSKVQVRRVQKQGNTIRVELELRTNGKKENYTVEVERQGNTWTVKRITRT [S18W] | 4.39 kcal/mol |
| EEKRQVKQVAKEKLLEQSPNSKVQVRRVQKQGNTIRVPLELRTNGKKENYTVEVERQGNTWTVKRITRT [E38P] | 1.08 kcal/mol |
| EEKRQVKQVAKEKLLEQSPNSKVQVRRVQKQGNTIRVENELRTNGKKENYTVEVERQGNTWTVKRITRT [L39N] | -0.472 kcal/mol |
| EEKRQVKQVAKEKLLEQSPNSKVQVRRVQKQGNTIRVELELRTNGKKENYTSEVERQGNTWTVKRITRT [V52S] | 1.21 kcal/mol |
| EEKRQVKQVAKEKLLEQSPNSKVQVRRVQKQGNTIRKELELRTNGKKENYTVEVERQGNTWTVKRITRT [V37K] | 0.177 kcal/mol |
| EEKRQVKQVAKEKLLEQSPNSKVQVRRVQKQGNTIEVELELRTNGKKENYTVEVERQGNTWTVKRITRT [R36E] | 3.54 kcal/mol |
| EEKRQVKQVAKEKLLEQSPNSKVQVRRVQKQGNTIRVELELRTNGYKENYTVEVERQGNTWTVKRITRT [K46Y] | 3.93 kcal/mol |
| EEKRQVKQVAKEKLLWQSPNSKVQVRRVQKQGNTIRVELELRTNGKKENYTVEVERQGNTWTVKRITRT [E16W] | 2.86 kcal/mol |
| EEKRQVKQVAKEKLLEQSPNSKVQVRRVQCQGNTIRVELELRTNGKKENYTVEVERQGNTWTVKRITRT [K30C] | 3.69 kcal/mol |
| EEKRQVKQVAKEKLLEQSPNSKVQVRRVQNQGNTIRVELELRTNGKKENYTVEVERQGNTWTVKRITRT [K30N] | 3.76 kcal/mol |
| EEKRQVKQVAKEKLLEQSPNSKVQVRRVQKQGNTIRVELPLRTNGKKENYTVEVERQGNTWTVKRITRT [E40P] | 0.357 kcal/mol |

| Variant | folding stability dG |
| --- | --- |
| EEKRQVKQVAKEKLLEQSPNSKVQVRRVTKQGNTIRVELELRTNGKKENYTVEVERQGNTWTVKRITRT [Q29T] | 4.33 kcal/mol |
| EEKRQVKQVAKEKLLEQSPNSKVQVRRVQKQGNTIRVELELRTNGKKENFTVEVERQGNTWTVKRITRT [Y50F] | 3.74 kcal/mol |
| EEKRQVKQVAKEKLLEQSPNSKVQVRRVQKQGNTIRVELELRTNGKKENYTVEVERQGNYWTVKRITRT [T60Y] | 3.79 kcal/mol |
| EEKRQVKQVAKEKLLEQSPNSKVQVRRVQKQGNTIRVELELRTNGKKVNYTVEVERQGNTWTVKRITRT [E48V] | 3.63 kcal/mol |
| EEKRGVKQVAKEKLLEQSPNSKVQVRRVQKQGNTIRVELELRTNGKKENYTVEVERQGNTWTVKRITRT [Q5G] | 3.64 kcal/mol |
| EEKRQVKQVAKEKLLEQSPNSKVQVRRVQKQGNTIRVELELRTNGKKENYTVEVERQGNTWTVKRILRT [T67L] | 4.01 kcal/mol |
| EEKRQVKQVAKEKLLEQSPNSKVQVRRVQKQGNTIRVELELRTNGKKENYTVEVERQGNTWTVKRIRRT [T67R] | 3.73 kcal/mol |
| EEKRQVKQVAKEKLLEQSPNSKVQVRRVQKQGNTIRVELELRTNGKKENYTVEVERQPNTWTVKRITRT [G58P] | 2.25 kcal/mol |
| EEKRQVKQVLKEKLLEQSPNSKVQVRRVQKQGNTIRVELELRTNGKKENYTVEVERQGNTWTVKRITRT [A10L] | 3.55 kcal/mol |
| EEKRQVKQVAKEKLLEQSPNSKVQVRRVQKTGNTIRVELELRTNGKKENYTVEVERQGNTWTVKRITRT [Q31T] | 4.12 kcal/mol |
| EEKRQVKQVAKEKLLEQSPNSKVQVRRVQKQGNTIRVELELRTNGKKENYTVEVERQGNTQTVKRITRT [W61Q] | 1.88 kcal/mol |
| EEKRQVKQVAKEKLLEQSPNSKVQVRRVQKQGNTIRVELELRTNGKKENYTVEVERQGNTYTVKRITRT [W61Y] | 4.03 kcal/mol |
| EEKRQVKQVAKEKLLEQSPNSKVQVRRVQKQGNTIRVELELRTNGKKENYTVEVERQGNTSTVKRITRT [W61S] | 2 kcal/mol |
| EEKRQVKQVAKEKLLEQSPNSKVQVRRVQKQGNTIRVELELRTNGKKENYTVEVERQGNTWTVVRITRT [K64V] | 4.3 kcal/mol |
| EEKRQVKQVAKEKLLEQSPNSKVQVRRVQKQGNTIRVELELRTNGKKENYTVEVERQGNTWTVHRITRT [K64H] | 3.25 kcal/mol |
| EEKRQVKQVAKEKLLEQSPNSKVQVRRVQKQGNTIRVELELRTNIKKENYTVEVERQGNTWTVKRITRT [G45I] | 2.91 kcal/mol |
| EEKRQVKQVAKEKLLEQSPNSKVQVRRVQKQGNTIRVELELRTNEKKENYTVEVERQGNTWTVKRITRT [G45E] | 3.49 kcal/mol |
| EEKRQVKQVAKEKLLEQSPNSKVQVRRVQKQGNTIRVELELRTNRKKENYTVEVERQGNTWTVKRITRT [G45R] | 3.42 kcal/mol |
| EEKRQVKQVAKEKLLEQSPNSKLQVRRVQKQGNTIRVELELRTNGKKENYTVEVERQGNTWTVKRITRT [V23L] | 3.07 kcal/mol |
